Biological target: ubiquitin conjugates (MEFs)
Experiment: UBQLN2 IP and western blot quantification (primary MEFs)
Conditions: n = 3; read off a plot

For “UBQLN2 (mouse, endogenous, wild type) (from UniProt Q9QZM0) mP520T”, the ratio to parent was 1.4.

Reference: PMC5003816
